What follows are substances tested against factor Xa.

Sequence of Ser-(Glu15-Thr161)-EPI (chain): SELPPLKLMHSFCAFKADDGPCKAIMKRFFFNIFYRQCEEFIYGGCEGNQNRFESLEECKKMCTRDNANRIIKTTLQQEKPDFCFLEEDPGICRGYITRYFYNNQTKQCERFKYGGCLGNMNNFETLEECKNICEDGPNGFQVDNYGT
Sequence of native extrinsic pathway inhibitor (EPI), entire EPI protein expressed from pCMVEPIhGH (chain): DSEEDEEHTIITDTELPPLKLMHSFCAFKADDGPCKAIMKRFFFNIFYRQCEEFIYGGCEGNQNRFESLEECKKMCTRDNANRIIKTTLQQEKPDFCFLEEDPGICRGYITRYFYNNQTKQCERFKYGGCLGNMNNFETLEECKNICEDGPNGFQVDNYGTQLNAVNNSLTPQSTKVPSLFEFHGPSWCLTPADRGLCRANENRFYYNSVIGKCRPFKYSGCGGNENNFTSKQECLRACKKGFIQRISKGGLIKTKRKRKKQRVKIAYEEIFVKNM
Sequence of Ser-(Thr88-Thr161)-EPI (chain): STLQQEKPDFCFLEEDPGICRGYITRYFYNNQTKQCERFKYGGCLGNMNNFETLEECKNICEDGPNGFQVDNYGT

| anti-Xa activity [U/ml], chromogenic assay (FXa, substrate S2222) | Substance |
| --- | --- |
| 5.6 U/ml | Ser-(Glu15-Thr161)-EPI |
| 0.15 U/ml | Ser-(Thr88-Thr161)-EPI |
| 7.6 U/ml | native extrinsic pathway inhibitor (EPI), entire EPI protein expressed from pCMVEPIhGH |
